Source: article PMC4117486, “Investigation of Endoglin Wild-Type and Missense Mutant Protein Heterodimerisation Using Fluorescence Microscopy Based IF, BiFC and FRET Analyses” (PLoS ONE, 2014)

B1: endoglin wild-type, EYFP- or ECFP-tagged (receptor, human, UniProt P17813 26-658, looked up)
chain: ETVHCDLQPVGPERGEVTYTTSQVSKGCVAQAPNAILEVHVLFLEFPTGPSQLELTLQASKQNGTWPREVLLVLSVNSSVFLHLQALGIPLHLAYNSSLVTFQEPPGVNTTELPSFPKTQILEWAAERGPITSAAELNDPQSILLRLGQAQGSLSFCMLEASQDMGRTLEWRPRTPALVRGCHLEGVAGHKEAHILRVLPGHSAGPRTVTVKVELSCAPGDLDAVLILQGPPYVSWLIDANHNMQIWTTGEYSFKIFPEKNIRGFKLPDTPQGLLGEARMLNASIVASFVELPLASIVSLHASSCGGRLQTSPAPIQTTPPKDTCSPELLMSLIQTKCADDAMTLVLKKELVAHLKCTITGLTFWDPSCEAEDRGDKFVLRSAYSSCGMQVSASMISNEAVVNILSSSSPQRKKVHCLNMDSLSFQLGLYLSPHFLQASNTIEPGQQSFVQVRVSPSVSEFLLQLDSCHLDLGPEGGTVELIQGRAAKGNCVSLLSPSPEGDPRFSFLLHFYTVPIPKTGTLSCTVALRPKTGSQDQEVHRTVFMRLNIISPDLSGCTSKGLVLPAVLGITFGAFLIGALLTAALWYIYSHTRSPSKREPVVAVAAPASSESSSTNHSIGSTQSTPCSTSSMA
notes: endoglin (CD105), human, wild type; EYFP-tagged with the ECFP-tagged receptors and with soluble ECFP; ECFP-tagged with the EYFP-tagged mutants; both versions together for the homodimer; also called endoglin^wt-EYFP; endoglin^wt-ECFP; source: CHO cells, transiently co-transfected (50 ng of each construct per 100 000 cells), in living cells; not shown: EYFP (acceptor) or ECFP (donor), C-terminal, …
B2: endoglin S480C, EYFP-tagged (receptor, human, UniProt P17813 26-658, looked up)
chain: ETVHCDLQPVGPERGEVTYTTSQVSKGCVAQAPNAILEVHVLFLEFPTGPSQLELTLQASKQNGTWPREVLLVLSVNSSVFLHLQALGIPLHLAYNSSLVTFQEPPGVNTTELPSFPKTQILEWAAERGPITSAAELNDPQSILLRLGQAQGSLSFCMLEASQDMGRTLEWRPRTPALVRGCHLEGVAGHKEAHILRVLPGHSAGPRTVTVKVELSCAPGDLDAVLILQGPPYVSWLIDANHNMQIWTTGEYSFKIFPEKNIRGFKLPDTPQGLLGEARMLNASIVASFVELPLASIVSLHASSCGGRLQTSPAPIQTTPPKDTCSPELLMSLIQTKCADDAMTLVLKKELVAHLKCTITGLTFWDPSCEAEDRGDKFVLRSAYSSCGMQVSASMISNEAVVNILSSSSPQRKKVHCLNMDSLSFQLGLYLSPHFLQASNTIEPGQQSFVQVRVCPSVSEFLLQLDSCHLDLGPEGGTVELIQGRAAKGNCVSLLSPSPEGDPRFSFLLHFYTVPIPKTGTLSCTVALRPKTGSQDQEVHRTVFMRLNIISPDLSGCTSKGLVLPAVLGITFGAFLIGALLTAALWYIYSHTRSPSKREPVVAVAAPASSESSSTNHSIGSTQSTPCSTSSMA
notes: endoglin (CD105), human, missense mutant S480C (found in a Scottish HHT family); site-directed mutagenesis on pCMV5-endoglin wild type, moved into pEYFP-N1; also called mutant S480C; source: CHO cells, transiently co-transfected (50 ng of each construct per 100 000 cells), in living cells; not shown: EYFP, C-terminal, kept

Experiments:
Assay in all cases: FRET or BRET; microscopic FRET in living CHO cells, ECFP donor and EYFP acceptor, 50 ng of each construct per 100 000 cells, 24 h after transfection, HEPES buffered ringer solution; FRET index (FI) = FRET efficiency x area with FRET; FI<51 no interaction, 51-99 weak or false positive, >=100 interaction; at least 30 cells per sample
[1] = target: the molecule itself
[2] = target: B1; conditions: partners not purified
[3] = target: B2; conditions: partners not purified

## B1
[1]
  % of cells clearly FRET-positive (FRET index >=100): 100%
  mean FRET index of the positive cells: 373 FRET index

## B2
[2]
  % of cells clearly FRET-positive (FRET index >=100): 65%
  % of cells in FRET index group 2 (FI 51-99, weak or false positive): 19%
  mean FRET index of the positive cells: 239 FRET index

B3: endoglin G52V, EYFP-tagged (with an ECFP-tagged copy for the homodimer) (receptor, human, UniProt P17813 26-658, looked up)
chain: ETVHCDLQPVGPERGEVTYTTSQVSKVCVAQAPNAILEVHVLFLEFPTGPSQLELTLQASKQNGTWPREVLLVLSVNSSVFLHLQALGIPLHLAYNSSLVTFQEPPGVNTTELPSFPKTQILEWAAERGPITSAAELNDPQSILLRLGQAQGSLSFCMLEASQDMGRTLEWRPRTPALVRGCHLEGVAGHKEAHILRVLPGHSAGPRTVTVKVELSCAPGDLDAVLILQGPPYVSWLIDANHNMQIWTTGEYSFKIFPEKNIRGFKLPDTPQGLLGEARMLNASIVASFVELPLASIVSLHASSCGGRLQTSPAPIQTTPPKDTCSPELLMSLIQTKCADDAMTLVLKKELVAHLKCTITGLTFWDPSCEAEDRGDKFVLRSAYSSCGMQVSASMISNEAVVNILSSSSPQRKKVHCLNMDSLSFQLGLYLSPHFLQASNTIEPGQQSFVQVRVSPSVSEFLLQLDSCHLDLGPEGGTVELIQGRAAKGNCVSLLSPSPEGDPRFSFLLHFYTVPIPKTGTLSCTVALRPKTGSQDQEVHRTVFMRLNIISPDLSGCTSKGLVLPAVLGITFGAFLIGALLTAALWYIYSHTRSPSKREPVVAVAAPASSESSSTNHSIGSTQSTPCSTSSMA
notes: endoglin (CD105), human, HHT1 missense mutant G52V; also called mutant G52V; source: CHO cells, transiently co-transfected (50 ng of each construct per 100 000 cells), in living cells; not shown: EYFP (acceptor) or ECFP (donor, homodimer only), C-terminal, kept
[1]
  % of cells clearly FRET-positive (FRET index >=100): ≥ 75%
  % of cells in FRET index group 2 (FI 51-99, weak or false positive): 15%
  mean FRET index of the positive cells: 204 FRET index
[2]
  % of cells clearly FRET-positive (FRET index >=100): 51%
  % of cells in FRET index group 2 (FI 51-99, weak or false positive): 27%
  mean FRET index of the positive cells: 222 FRET index

B4: TβRII, ECFP- or EYFP-tagged (receptor, UniProt P37173 23-567, looked up)
chain: TIPPHVQKSVNNDMIVTDNNGAVKFPQLCKFCDVRFSTCDNQKSCMSNCSITSICEKPQEVCVAVWRKNDENITLETVCHDPKLPYHDFILEDAASPKCIMKEKKKPGETFFMCSCSSDECNDNIIFSEEYNTSNPDLLLVIFQVTGISLLPPLGVAISVIIIFYCYRVNRQQKLSSTWETGKTRKLMEFSEHCAIILEDDRSDISSTCANNINHNTELLPIELDTLVGKGRFAEVYKAKLKQNTSEQFETVAVKIFPYEEYASWKTEKDIFSDINLKHENILQFLTAEERKTELGKQYWLITAFHAKGNLQEYLTRHVISWEDLRKLGSSLARGIAHLHSDHTPCGRPKMPIVHRDLKSSNILVKNDLTCCLCDFGLSLRLDPTLSVDDLANSGQVGTARYMAPEVLESRMNLENVESFKQTDVYSMALVLWEMTSRCNAVGEVKDYEPPFGSKVREHPCVESMKDNVLRDRGRPEIPSFWLNHQGIQMVCETLTECWDHDPEARLTAQCVAERFSELEHLDRLSGRSCSEEKIPEDGSLNTTK
notes: TβRII, TGF-β type II receptor; The methods name only the EYFP version; the results use an ECFP-tagged version; also called TβRII-EYFP; TGF-β type-II receptor; source: CHO cells, transiently co-transfected, in living cells
[3]
  % of cells clearly FRET-positive (FRET index >=100): 3%
  % of cells in FRET index group 2 (FI 51-99, weak or false positive): 10%
  mean FRET index of the positive cells: 147 FRET index
[2]
  % of cells clearly FRET-positive (FRET index >=100): 62%
  % of cells in FRET index group 2 (FI 51-99, weak or false positive): 18%
  mean FRET index of the positive cells: 293 FRET index

B5: ALK5, ECFP- or EYFP-tagged (receptor, UniProt P36897 34-503, looked up)
chain: LQCFCHLCTKDNFTCVTDGLCFVSVTETTDKVIHNSMCIAEIDLIPRDRPFVCAPSSKTGSVTTTYCCNQDHCNKIELPTTVKSSPGLGPVELAAVIAGPVCFVCISLMLMVYICHNRTVIHHRVPNEEDPSLDRPFISEGTTLKDLIYDMTTSGSGSGLPLLVQRTIARTIVLQESIGKGRFGEVWRGKWRGEEVAVKIFSSREERSWFREAEIYQTVMLRHENILGFIAADNKDNGTWTQLWLVSDYHEHGSLFDYLNRYTVTVEGMIKLALSTASGLAHLHMEIVGTQGKPAIAHRDLKSKNILVKKNGTCCIADLGLAVRHDSATDTIDIAPNHRVGTKRYMAPEVLDDSINMKHFESFKRADIYAMGLVFWEIARRCSIGGIHEDYQLPYYDLVPSDPSVEEMRKVVCEQKLRPNIPNRWQSCEALRVMAKIMRECWYANGAARLTALRIKKTLSQLSQQEGIKM
notes: ALK5, TGF-β type I receptor; The methods name only the EYFP version; the results use an ECFP-tagged version; also called ALK5-EYFP; source: CHO cells, transiently co-transfected, in living cells
[3]
  % of cells clearly FRET-positive (FRET index >=100): 13%
  % of cells in FRET index group 2 (FI 51-99, weak or false positive): 30%
  mean FRET index of the positive cells: 129 FRET index
[2]
  % of cells clearly FRET-positive (FRET index >=100): 36%
  % of cells in FRET index group 2 (FI 51-99, weak or false positive): 16%
  mean FRET index of the positive cells: 243 FRET index
